The values below come from patent US20120035244A1 (REGENTS OF THE UNIVERSITY OF MICHIGAN, published 2012).

B1: XRCC4 (other, human, UniProt Q13426 1-336, looked up)
chain: MERKISRIHLVSEPSITHFLQVSWEKTLESGFVITLTDGHSAWTGTVSESEISQEADDMAMEKGKYVGELRKALLSGAGPADVYTFNFSKESCYFFFEKNLKDVSFRLGSFNLEKVENPAEVIRELICYCLDTIAENQAKNEHLQKENERLLRDWNDVQGRFEKCVSAKEALETDLYKRFILVLNEKKTKIRSLHNKLLNAAQEREKDIKQEGETAICSEMTADRDPVYDESTDEESENQTDLSGLASAAVSKDDSIISSLDVTDIAPSRKRRQRMQRNLGTEPKMAPQENQLQEKENSRPDSSLPETSKKEHISAENMSLETLRNSSPEDLFDEI
B2: ERG, TMPRSS2:ERG gene fusion product (TMPRSS2 exon 1 fused to ERG1 exon 2) (other, human, UniProt P11308 33-479, looked up)
chain: MTASSSSDYGQTSKMSPRVPQQDWLSQPPARVTIKMECNPSQVNGSRNSPDECSVAKGGKMVGSPDTVGMNYGSYMEEKHMPPPNMTTNERRVIVPADPTLWSTDHVRQWLEWAVKEYGLPDVNILLFQNIDGKELCKMTKDDFQRLTPSYNADILLSHLHYLRETPLPHLTSDDVDKALQNSPRLMHARNTGGAAFIFPNTSVYPEATQRITTRPDLPYEPPRRSAWTGHGHPTPQSKAAQPSPSTVPKTEDQRPQLDPYQILGPTSSRLANPGSGQIQLWQFLLELLSDSSNSSCITWEGTNGEFKMTDPDEVARRWGERKSKPNMNYDKLSRALRYYYDKNIMTKVHGKRYAYKFDFHGIAQALQPHPPESSLYKYPSDLPYMGSYHAHPQKMNFVAPHPPALPVTSSSFFAAPNPYWNSPTGGIYPNTRLPTSHMPSHLGTYY
notes: Untagged fusion product: endogenous in VCaP cells and in ERG fusion-positive human prostate cancer tissues; no tag stated; also called TMPRSS-ERG gene fusion product; endogenous gene fusion product

The target in assay [1] is B2. The assay is described as follows: ERG immunoprecipitation from VCaP cells, Western blot (FIG. 1b). Background: In western blotting, separated proteins are transferred to a membrane and probed.
A further assay deals with ATR (human, UniProt Q13535 1-2644). The assay is described as follows: ERG immunoprecipitation from VCaP cells, Western blot (FIG. 8b).
ATR, sequence (Q13535 whole entry): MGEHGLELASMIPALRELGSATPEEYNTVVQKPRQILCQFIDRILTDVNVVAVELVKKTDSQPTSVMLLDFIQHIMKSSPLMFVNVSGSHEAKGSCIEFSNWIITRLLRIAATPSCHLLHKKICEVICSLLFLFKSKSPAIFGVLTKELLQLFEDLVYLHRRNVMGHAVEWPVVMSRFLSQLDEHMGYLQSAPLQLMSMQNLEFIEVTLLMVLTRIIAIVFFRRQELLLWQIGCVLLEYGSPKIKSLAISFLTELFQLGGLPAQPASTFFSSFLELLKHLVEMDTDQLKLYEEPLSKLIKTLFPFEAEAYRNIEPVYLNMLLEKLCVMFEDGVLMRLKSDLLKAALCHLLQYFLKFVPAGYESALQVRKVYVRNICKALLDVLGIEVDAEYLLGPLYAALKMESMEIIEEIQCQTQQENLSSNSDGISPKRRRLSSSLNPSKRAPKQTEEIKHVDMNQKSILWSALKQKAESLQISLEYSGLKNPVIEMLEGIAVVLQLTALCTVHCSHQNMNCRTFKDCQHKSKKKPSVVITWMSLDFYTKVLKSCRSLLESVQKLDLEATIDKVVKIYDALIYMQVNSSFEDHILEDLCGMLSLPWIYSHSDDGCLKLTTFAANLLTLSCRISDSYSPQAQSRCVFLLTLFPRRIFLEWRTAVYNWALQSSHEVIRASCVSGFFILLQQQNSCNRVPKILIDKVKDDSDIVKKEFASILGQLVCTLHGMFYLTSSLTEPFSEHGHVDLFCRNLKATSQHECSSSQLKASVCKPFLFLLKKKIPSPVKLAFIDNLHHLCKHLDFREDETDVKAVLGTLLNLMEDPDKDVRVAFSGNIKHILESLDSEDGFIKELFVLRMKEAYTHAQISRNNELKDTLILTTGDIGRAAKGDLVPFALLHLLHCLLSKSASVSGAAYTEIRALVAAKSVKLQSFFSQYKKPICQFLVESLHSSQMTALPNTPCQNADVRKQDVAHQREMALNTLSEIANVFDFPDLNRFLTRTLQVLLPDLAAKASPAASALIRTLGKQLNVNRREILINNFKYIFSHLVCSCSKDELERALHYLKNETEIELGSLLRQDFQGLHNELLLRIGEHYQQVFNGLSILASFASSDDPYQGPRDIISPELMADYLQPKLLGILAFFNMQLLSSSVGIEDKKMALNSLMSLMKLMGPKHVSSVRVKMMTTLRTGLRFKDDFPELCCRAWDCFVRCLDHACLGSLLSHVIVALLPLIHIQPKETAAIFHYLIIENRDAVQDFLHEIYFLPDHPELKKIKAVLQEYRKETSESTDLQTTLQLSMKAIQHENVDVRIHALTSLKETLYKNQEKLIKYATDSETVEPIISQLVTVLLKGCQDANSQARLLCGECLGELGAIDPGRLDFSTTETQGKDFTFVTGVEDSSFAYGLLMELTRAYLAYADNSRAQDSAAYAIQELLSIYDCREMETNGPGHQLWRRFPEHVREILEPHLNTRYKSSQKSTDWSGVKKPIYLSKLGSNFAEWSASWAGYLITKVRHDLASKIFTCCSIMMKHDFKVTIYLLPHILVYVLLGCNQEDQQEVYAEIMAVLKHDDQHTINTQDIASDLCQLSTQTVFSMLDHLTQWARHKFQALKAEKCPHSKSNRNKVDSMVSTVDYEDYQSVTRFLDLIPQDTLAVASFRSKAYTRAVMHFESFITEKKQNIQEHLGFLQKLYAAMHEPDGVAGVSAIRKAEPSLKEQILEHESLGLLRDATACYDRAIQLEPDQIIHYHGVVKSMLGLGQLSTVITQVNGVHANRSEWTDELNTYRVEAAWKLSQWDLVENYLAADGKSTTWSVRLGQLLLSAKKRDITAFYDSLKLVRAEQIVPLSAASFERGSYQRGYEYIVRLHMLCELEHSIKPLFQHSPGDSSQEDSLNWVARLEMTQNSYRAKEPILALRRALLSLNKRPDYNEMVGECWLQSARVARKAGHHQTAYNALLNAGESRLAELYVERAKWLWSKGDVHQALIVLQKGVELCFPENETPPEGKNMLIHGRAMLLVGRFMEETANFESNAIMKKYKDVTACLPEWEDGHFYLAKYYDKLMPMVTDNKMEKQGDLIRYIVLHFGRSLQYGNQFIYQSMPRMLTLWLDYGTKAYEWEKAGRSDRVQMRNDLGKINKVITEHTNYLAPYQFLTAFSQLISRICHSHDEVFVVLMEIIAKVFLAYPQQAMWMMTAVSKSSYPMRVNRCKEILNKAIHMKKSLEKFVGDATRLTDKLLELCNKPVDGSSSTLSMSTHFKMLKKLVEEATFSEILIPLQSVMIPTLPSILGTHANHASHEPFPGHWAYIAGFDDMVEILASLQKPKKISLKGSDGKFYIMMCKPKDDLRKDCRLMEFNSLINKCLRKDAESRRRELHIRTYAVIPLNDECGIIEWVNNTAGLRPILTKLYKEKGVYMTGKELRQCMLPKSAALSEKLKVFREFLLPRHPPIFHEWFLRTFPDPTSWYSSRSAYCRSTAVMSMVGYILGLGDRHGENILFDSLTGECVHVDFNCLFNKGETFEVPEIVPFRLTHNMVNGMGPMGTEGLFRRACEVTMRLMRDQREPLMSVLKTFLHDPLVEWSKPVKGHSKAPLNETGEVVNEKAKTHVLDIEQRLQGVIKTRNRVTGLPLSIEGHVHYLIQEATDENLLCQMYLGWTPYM

As for B1, the binding result in assay [1] is reported as “no binding”.

For the molecule B2, the binding result with ATR is listed as “no binding”.
